Consider 2 molecules from article doi:10.1101/2021.12.29.474488 (bioRxiv, 2021).

Data set [1] has as its target MgtE T336C/L421C mutant lacking the N domain (T. thermophilus) (UniProt Q5SMG8). Briefly: cross-linking.
The data set “crystal structure” concerns the molecule itself. Briefly: crystal structure.

For “MgtE T336C/L421C mutant lacking the N domain (from UniProt Q5SMG8 130-450) (domain or fragment)”, the stoichiometry N (as a rule, a count of units in the complex or per binding partner) in data set [1] is 2.

B1: MgtE transmembrane (TM) domain from Thermus thermophilus (domain or fragment, T. thermophilus, UniProt Q5SMG8 268-450, looked up)
chain: VPDLVYSEAGPVALWLARVRWLVILILTGMVTSSILQGFESVLEAVTALAFYVPVLLGTGGNTGNQSATLIIRALATRDLDLRDWRRVFLKEMGVGLLLGLTLSFLLVGKVYWDGHPLLLPVVGVSLVLIVFFANLVGAMLPFLLRRLGVDPALVSNPLVATLSDVTGLLIYLSVARLLLEAV
B1: in “crystal structure”, the binding result is given as “binds”.
